According to publication PMC12513289 (The Journal of Biological Chemistry, 2025):

Biological target: the molecule itself
Test: mass photometry, R534* homodimer

B1: human AsnRS R534∗ (ΔR534-P548), N-terminal 6xHis tag (enzyme, UniProt O43776 1-533, looked up)
chain: MVLAELYVSDREGSDATGDGTKEKPFKTGLKALMTVGKEPFPTIYVDSQKENERWNVISKSQLKNIKKMWHREQMKSESREKKEAEDSLRREKNLEEAKKITIKNDPSLPEPKCVKIGALEGYRGQRVKVFGWVHRLRRQGKNLMFLVLRDGTGYLQCVLADELCQCYNGVLLSTESSVAVYGMLNLTPKGKQAPGGHELSCDFWELIGLAPAGGADNLINEESDVDVQLNNRHMMIRGENMSKILKARSMVTRCFRDHFFDRGYYEVTPPTLVQTQVEGGATLFKLDYFGEEAFLTQSSQLYLETCLPALGDVFCIAQSYRAEQSRTRRHLAEYTHVEAECPFLTFDDLLNRLEDLVCDVVDRILKSPAGSIVHELNPNFQPPKRPFKRMNYSDAIVWLKEHDVKKEDGTFYEFGEDIPEAPERLMTDTINEPILLCRFPVEIKSFYMQRCPEDSRLTESVDVLMPNVGEIVGGSMRIFDSEEILAGYKREGIDPTPYYWYTDQRKYGTCPHGGYGLGLERFLTWILNRYHI
notes: also called His-R534∗; R534∗ mutant; source: E. coli BL21(DE3) or BL21 ClearColi, purified (Ni-NTA, heparin, SEC); not shown: His6, N-terminal, kept
  Kd: 54.4 nM
